Measurements taken from the supplement of paper PMC9170038.

Test system: MS2 coat protein
Assay: apparent KD of MS2 coat protein; designed switch direction (-1 OFF switch, 1 ON switch): 1; higher = weaker reporter binding
In short: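 Apparent KD, taken as the median over clusters for each design, was obtained by curve-fitting normalised cluster fluorescence. Designed RNA switches had been transcribed on Illumina chips by stalled E. coli RNA polymerase and titrated with SNAP-549-labelled MS2 coat protein, doubling from 0.7 or 1.5 nM to 3 µM.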

[1] = input ligand: microRNA oligo, concentration not stated
[2] = Eterna round: R95, input ligand: FMN 200 uM
[3] = Eterna round: R95, input ligand: microRNA oligo, concentration not stated
[4] = Eterna round: R95, input ligand: none

UGUUCGUAGGAAGGAUAUCGAAAUAAAGGCGUCCACAUGAGGAUCACCCAUGUCGGCGGACCAAACGAGAAGGUCUACCCGGAC [Eternabot solution 12] (Eterna round: R96, puzzle: Same State NG 2)
apparent KD of MS2 coat protein (input ligand: FMN 200 uM): 9.42 nM | apparent KD of MS2 coat protein [1]: 8.37 nM | apparent KD of MS2 coat protein (input ligand: none): 11.6 nM

UGUUGUAUUACAGGAUAUCUAGUAUAUUUAUUUAGAGAAGGGUAUUCACAUGAGGAUCACCCAUGUAUAUACGAGGAAGUUGUG [JMF's solution 37] (Eterna round: R96, puzzle: Same State NG 1)
apparent KD of MS2 coat protein [1]: 29.6 nM

UGUUGUAUUACAGGAUAUCUAGUAUUUGUAUUUAGAGAAGGGUAUUCACAUGAGGAUCACCCAUGUAUAUACGAGGAAGUUGUG [JMF's solution 42] (Eterna round: R96, puzzle: Same State NG 1)
apparent KD of MS2 coat protein (input ligand: FMN 200 uM): 53.7 nM | apparent KD of MS2 coat protein [1]: 35.4 nM | apparent KD of MS2 coat protein (input ligand: none): 48.3 nM

UGUUGUAUUACAGGAUAUCUAUGUUUUUUAUUUAGAGAAGGGUAUUCACAUGAGGAUCACCCAUGUAUAUACGAGGAAGUUGUG [JMF's solution 57] (Eterna round: R96, puzzle: Same State NG 1)
apparent KD of MS2 coat protein [1]: 40.4 nM

UGUUGUAUUACAGGAUAUCUAUUAGCUUUAUUUAGAGAAGGGUAUUCACAUGAGGAUCACCCAUGUAUAUACGAGGAAGUUGUG [JMF's solution 88] (Eterna round: R96, puzzle: Same State NG 1)
apparent KD of MS2 coat protein [1]: 33.6 nM

UGUUGUAUUACAGGAUAUCUAUUAUUUUUAUGUAGAGAAGGGUAUUCACAUGAGGAUCACCCAUGUAUAUACGAGGAAGUUGUG [JMF's solution 29] (Eterna round: R96, puzzle: Same State NG 1)
apparent KD of MS2 coat protein [1]: 32.9 nM

UGUUGUUAAUUAGGAUAUGGUCACAUGAGGAUCACCCAUGUAAUGUCGAUGCUAUGUGGACACGAUCAGAAGGAAUGGCUAACA [SameState NG2 #93] (Eterna round: R96, puzzle: Same State NG 2)
apparent KD of MS2 coat protein (input ligand: FMN 200 uM): 21.3 nM | apparent KD of MS2 coat protein [1]: 69.7 nM | apparent KD of MS2 coat protein (input ligand: none): 102 nM

UUAAAACAUGAGGAUCACCCAUGUAAUAAUAUGGGAGGAUAUCAGAAUGUAUGUAUGUAAUGAGAAGGCCUAAAUU [Mat - Same State 1 - Mod of Eli - D76] (puzzle: Same State 1)
apparent KD of MS2 coat protein [2]: 63.6 nM | apparent KD of MS2 coat protein [3]: 519 nM | apparent KD of MS2 coat protein [4]: 1280 nM

UUAAAACAUGAGGAUCACCCAUGUAAUAAUAUGGGAGGAUAUCAGAUUUAAUUUAAUUUAUGAGAAGGCCUAAAUU [Mat - Same State 1 - Mod of Eli - D61] (puzzle: Same State 1)
apparent KD of MS2 coat protein [2]: 58.7 nM | apparent KD of MS2 coat protein [3]: 163 nM | apparent KD of MS2 coat protein [4]: 512 nM

UUAACAUGAGGAUCACCCAUGUAUAGGGAGUUAACAAUUGGACAGGAUAUUGAAGAUGUAGAUAGCAAGAAGGGUCGGUAGUCU [JR_SSNG3_Sub001] (Eterna round: R96, puzzle: Same State NG 3)
apparent KD of MS2 coat protein [1]: 30 nM

UUAACAUGAGGAUCACCCAUGUAUGCGUAGCUUGCAUUUUGACAGGAUAUUGAAUAUCUAUAUAGCAAGAAGGGUCGUUAGUCU [JR_SSNG3_Sub008] (Eterna round: R96, puzzle: Same State NG 3)
apparent KD of MS2 coat protein (input ligand: FMN 200 uM): 91.8 nM | apparent KD of MS2 coat protein [1]: 53.3 nM | apparent KD of MS2 coat protein (input ligand: none): 94.9 nM

UUAAGCAACGGGCAGGAUAUGUAUUAAUAUACAUGAGGAUCACCCAUGUGCAGGUGUAACACCUGACAGAAGGGCCAAUCGCUGC [Soteed - 10] (puzzle: Same State 2)
apparent KD of MS2 coat protein [2]: 82.1 nM | apparent KD of MS2 coat protein [3]: 509 nM | apparent KD of MS2 coat protein [4]: 515 nM

UUAAGCCACGGGCAGGAUAUGUAUUAAAAUACAUGAGGAUCACCCAUGUGCAGGUGUAACACCUGGCAGAAGGGCCAAUCGCGGC [Soondi - 4] (puzzle: Same State 2)
apparent KD of MS2 coat protein [2]: 29.2 nM | apparent KD of MS2 coat protein [3]: 149 nM | apparent KD of MS2 coat protein [4]: 171 nM

UUAAUAAUGAUAGGAUAUACAUGAGGAAUUCUCGUAGAAGGAUCAUGACAUGAGGAUCACCCAUGUAACGCUCCGUAGAGCGUA [Mat - Same State NG 1 - JL mod - D36] (Eterna round: R96, puzzle: Same State NG 1)
apparent KD of MS2 coat protein (input ligand: FMN 200 uM): 413 nM | apparent KD of MS2 coat protein [1]: 321 nM | apparent KD of MS2 coat protein (input ligand: none): 447 nM

UUACUCAUGUAAGGAUAUGCAGCCGAAACGGCUGCAGAAGGUACUAUAAUACAUGAGGAUCACCCAUGUCUCUAUUAUUUAGUU [Mat - Same State NG 1 - JL mod - D94] (Eterna round: R96, puzzle: Same State NG 1)
apparent KD of MS2 coat protein (input ligand: FMN 200 uM): 73.4 nM | apparent KD of MS2 coat protein [1]: 38.2 nM | apparent KD of MS2 coat protein (input ligand: none): 58 nM

UUACUCAUGUAAGGAUAUGCAGCCGUUUCGGCUGCAGAAGGUACUAUAAUACAUGAGGAUCACCCAUGUCUUUUUAAUUUUUAC [JL SSNG1 1.28] (Eterna round: R96, puzzle: Same State NG 1)
apparent KD of MS2 coat protein (input ligand: FMN 200 uM): 87.5 nM | apparent KD of MS2 coat protein [1]: 24.4 nM | apparent KD of MS2 coat protein (input ligand: none): 54.2 nM

UUAUUAAUUACAUGAGGAUCACCCAUGUUAAAUAGUCAGAGACAGGAUAUAGAAGUCUCGUUUUACUAGAAGGGUCAUUAUAUG [JR_SSNG3_Sub013] (Eterna round: R96, puzzle: Same State NG 3)
apparent KD of MS2 coat protein (input ligand: FMN 200 uM): 40.7 nM | apparent KD of MS2 coat protein [1]: 27.2 nM | apparent KD of MS2 coat protein (input ligand: none): 35.8 nM

UUAUUAAUUACAUGAGGAUCACCCAUGUUUUUUUGUCAGAGACAGGAUAUAGAAGUCUCGUUUUACUAGAAGGGUCAUUAUAUG [JR_SSNG3_Sub014] (Eterna round: R96, puzzle: Same State NG 3)
apparent KD of MS2 coat protein (input ligand: FMN 200 uM): 25.6 nM | apparent KD of MS2 coat protein [1]: 19 nM | apparent KD of MS2 coat protein (input ligand: none): 29.7 nM

UUCAAUGGGAUAGGAUAUCCUGCGGCGAGGCGUGGAGAAGGGUCAAGUACAUGAGGAUCACCCAUGUUUCGGAAAUAUUCCGAG [Eternabot solution 29] (Eterna round: R96, puzzle: Same State NG 1)
apparent KD of MS2 coat protein (input ligand: FMN 200 uM): 121 nM | apparent KD of MS2 coat protein [1]: 41.5 nM | apparent KD of MS2 coat protein (input ligand: none): 125 nM

UUCCCAUCGGGAGGAUAUGGAACCUUAUUGGUUCUAGAAGGUCCAACAUGAGGAUCACCCAUGUGGGAGUGGUCUAAUGACCUC [SS NG10LRO03] (Eterna round: R96, puzzle: Same State NG 1)
apparent KD of MS2 coat protein (input ligand: FMN 200 uM): 264 nM | apparent KD of MS2 coat protein [1]: 288 nM | apparent KD of MS2 coat protein (input ligand: none): 333 nM

UUGAAGAAUUAAGGAUAUCGAGUCAAGAUGUAAAACAUGAGGAUCACCCAUGUGGGUUGCGGUAUCGAGAAGGUAAAUUACAAG [Mat - Same State NG 2 - JL mod - D52] (Eterna round: R96, puzzle: Same State NG 2)
apparent KD of MS2 coat protein (input ligand: FMN 200 uM): 24.1 nM | apparent KD of MS2 coat protein [1]: 16.9 nM | apparent KD of MS2 coat protein (input ligand: none): 35.4 nM

UUGAAGAAUUAAGGAUAUUGAAUACAUAUGUUAAACAUGAGGAUCACCCAUGUGGGUUGCGGUAUCGAGAAGGUAAAUUACUAG [Mat - same State NG 2 - JL mod - D80] (Eterna round: R96, puzzle: Same State NG 2)
apparent KD of MS2 coat protein [1]: 60.1 nM

UUGAUGAACUGAGGAUAUCGAGUCGUCUGUUUUUACAUGAGGAUCACCCAUGUGGGUUGUGGUAUCGAGAAGGCAGAUUACUUA [JR_SSNG2_Sub031] (Eterna round: R96, puzzle: Same State NG 2)
apparent KD of MS2 coat protein (input ligand: FMN 200 uM): 1670 nM | apparent KD of MS2 coat protein [1]: 974 nM | apparent KD of MS2 coat protein (input ligand: none): 2150 nM

UUGCAGUCAGGUGAGGAUAUCAUGAAUUAAACAUGAGGAUCACCCAUGUGCUGCCUUGCAGCAUAUGAGAAGGCACCUGGCUGCU [JL-ss2-3.01 Brourd Mod] (puzzle: Same State 2)
apparent KD of MS2 coat protein [2]: 65.2 nM | apparent KD of MS2 coat protein [3]: 185 nM | apparent KD of MS2 coat protein [4]: 640 nM

UUGCAGUGCGGGUAGGAUAUGUAGGGUGGUACAUGAGGAUCACCCAUGUAUCCACCCUUCGACCGGCAGAAGGGCCUGUCACCGC [Lexeis] (Eterna round: R96, puzzle: Same State 2)
apparent KD of MS2 coat protein (input ligand: FMN 200 uM): 23.1 nM | apparent KD of MS2 coat protein [1]: 11.2 nM | apparent KD of MS2 coat protein (input ligand: none): 17.4 nM

UUGCUCGUGUGAGGAUAUGCAGCCGUUUCGGCUGCAGAAGGUACUAUAAUACAUGAGGAUCACCCAUGUCUCUAUUGUUUAGUG [salish99_SSNG1_r04_927] (Eterna round: R96, puzzle: Same State NG 1)
apparent KD of MS2 coat protein (input ligand: FMN 200 uM): 25.7 nM | apparent KD of MS2 coat protein [1]: 19.6 nM | apparent KD of MS2 coat protein (input ligand: none): 26.7 nM

UUGUUUAGAAAUUAACAUGAGGAUCACCCAUGUAUUGGAUCAGAGGAUAUGCAUGUUUGAUUGUAGCAGAAGGCUGAUUGUUGA [JR_SSNG3_Sub029] (Eterna round: R96, puzzle: Same State NG 3)
apparent KD of MS2 coat protein [1]: 37.3 nM

UUUAGAUCGCGAGGAUAUCGCGAGGAUCACCCGUGAGAAGGCGCAGAGCCGAGGAUCACCCGGCUGAUCCUGAGGAGGAGGUCU (Eterna round: R96, puzzle: Same State NG 1)
apparent KD of MS2 coat protein (input ligand: FMN 200 uM): 106 nM | apparent KD of MS2 coat protein [1]: 184 nM | apparent KD of MS2 coat protein (input ligand: none): 269 nM

UUUGCAUGACGAGGAUAUCAUUUAUUUCAUGUUUGAGAAGGCGUUUUUUUUAUUACCUUACAUGAGGAUCACCCAUGUGUCUGU [JR_SSNG1_Sub044] (Eterna round: R96, puzzle: Same State NG 1)
apparent KD of MS2 coat protein (input ligand: FMN 200 uM): 32.2 nM | apparent KD of MS2 coat protein [1]: 39.6 nM | apparent KD of MS2 coat protein (input ligand: none): 48.5 nM

UUUGGGUGGCUGGAGGAUAUCCUGGUUGUUACAUGAGGAUCACCCAUGUGCCGCGCGGUGCGCUGGGAGAAGGCUGGCGGCCGUU (puzzle: Same State 2)
apparent KD of MS2 coat protein [3]: 71.8 nM
